# Substitutions are numbered along the chain they refer to.
# B1: Fab generated from 316L (Fab, V domains shown)
# VH: EERLVESGGGLVQPGGSLRLSCAASGFTFGDYAMHWVRQVPGKSLEWLSGISWSGYTTYSADSVKGRFTISRDNAKNSLYLQMNRLRPEDTGLYYCVTLIGAIGIKDSLDVWGRGVLVTVSS
# VL: QSVLTQPPSVSGAPGQRVTVSCSGSSSNIGAGNYVQWYQQLPGTAPKVLIYQTEKRPSGTSDRFSGSKSDTSASLTINGLQSEDEADYYCQVYDSNLNGWVFGGGTRLTVL
# notes: also called 316L Fab
# B2: Fab generated from 380L (Fab, V domains shown)
# VH: EVQLVESGGGLVQPGGSLTLSCAASGFTFGDYVMHWVRQVPGRGLEWLSAVSWSGYTTYSADSVKGRFTISRDNAKNSLYLQMSRLGTADTGLYYCVTLIGAIGIRDSFDAWGRGVLVTVSS
# VL: B1 VL with V10M, S23T, E54D, T60I, D70G, N78S, N96S
# notes: also called 380L Fab
# B3: antibody 231L (antibody, V domains shown)
# VH: EVQLVESGGGLVQPGGSLRLSCAASAFTFDDYAMHWVRQAPGKGLEWVSGITWSGLSTYYADSVKGRFTISRDNAKNSLYLQMNSLRVEDTALYYCAKSGNNSPFSGLDSWGQGAVVTVSS
# VL: QSVLTQPPSVSGAPGQRVTVSCTGSSSNIGAGSYVQWYQQLPGTAPKLLIYENNKRPSGVSDRFSGSKSGTSASLTITGLQSEDEADYYCQSYDSSLNAYIFGAGTRLTVL
# B4: antibody 314L (antibody, V domains shown)
# VH: B1 VH
# VL: EVVFTQPHSVSGSPGQMVTISCTRSSGTIDNSYVYWHQQRPGSAPTTVIYNDDQRPSGVPDRFSGSIDSSSNSASLTISGLKSEDEADYYCQSYDSSGWVFGGGTRLTVL
# B5: antibody 191L (antibody, V domains shown)
# VH: EVQLVESGGGLVQPGGSLRLSCAASGFTFSSYGIHWVRQAPGKGLEWVAIISYDGNKKFHADSVKDRFTISRDNSKNMLYLQMNNLKLEDTAVYYCARAYDSGYFAGSVFYYWGQGVLVTVSS
# VL: EVVFTQPHSVSGSPGQTVTISCTRSSGSIDSEYVQWYQQRPGNAPTTVIYKDNQRPSGVPDRFSGSIDSSSNSASLAISGLKSEDEADYYCQSADGNYHPVFGEGTRLTVL
# B6: antibody 206L (antibody, V domains shown)
# VH: EVQLVESGGGVVQPGGSLRLSCAASGFTFDDYAMHWVRQAPGKGLEWVSGISWSGGNTYYADSVKGRFTVSRENAKNSLYLQMNRLRAEDTAFYNCARTSQGGAVVFSAPNYWGQGVLVTVSS
# VL: QSVLTQAPSVSGAPGQRVTISCTGSSSNIGGYYVQWYQQLPGRAPKLLIYENNKRPSGVSDRFSGSRSASSASLTITGLQSEDEADYYCQSYDSRLNGYIFGGGTRLTVL
# B7: antibody 315L (antibody, V domains shown)
# VH: QVQLQESGPGLVKPSETLSLTCTVSGGSITGNYWTWVRQPPGKGLQYIGRFDAGGKTYYNPPLKSRVSILGDKSKNQVSLNLTSVTVADTGVYYCAREQWGQLLSGSFDVWGRGVLVTVSS
# VL: SYELTQPPSVSVSPGQTARITCSGDALPDYYAHWYQQKSGQAPMLVIYKDTERPSGIPERFSGSSSGTTVSLTISGVQAEDEADYYCQSGDSSGNHWVFGGGTRLTVL
# B8: antibody 310L (antibody, V domains shown)
# VH: EMQLVESGGGLVQPGGSLRLSCAASGFTFDAYAMHWVRQRPGKGLEWISGIIWSGRTTYYADSVKGRFTFSRDNSKNSLYLEMNSLKPEDTALYYCAKDSWNYGVYNSLDVWGRGILVTVSS
# VL: QSVLTQPPSVSGAPGQRVTISCTGSSSNVGPHYVSWYQHLPGTTPKLLIFQDNKRPSGVSDRFSGSKSASSASLTITGLQTEDEADYYCLSYDSSLNVYIFGSGTRLTVL
# B9: antibody 285S (antibody, V domains shown)
# VH: QVQLVQSGAEVKKPGSSVKVSCKASGGTFSTYAITWVRQAPGQGLEWMGRIIPILRVANYAQKFQGRVTITADSSTSTAYMELSSLRSEDTAVYYCANLLAYCGGDCRSDYWGQGTLVTVSS
# VL: EIVLTQSPGTLSLSPGERATLSCRASQSVKNSYLAWYHQKPGQAPRLLIYGASSRATGIPDRFSGSGSGTDFTLTISRLEPEDFAVYYCQQYGSSLWTFGQGTKVDVK
# B10: antibody 405S (antibody, V domains shown)
# VH: EVQLVESGGGLIQPGGSLRLSCAASGFTVSSHYMSWVRQAPGKGLEWVSGIYSGGRTHYADSVKGRFTISRDNSKNTLYLQMNSLRADDTAVYSCARGTLLYLYGMDVWGQGTTVTVSS
# VL: QSVLTQPPSVSAAPGQRVTISCTGSSSNIGAGYNVHWYQQLPGAAPKLLIYGNTNRPSGVPDRFSGSKSGTSASLAITGLQAEDEADYYCQSFDSSLSGVFGTGTKVTVL
# B11: antibody 578S (antibody, V domains shown)
# VH: EVQLVESGGGVVQPGRSLRLSCAASGFTFSSYELHWVRQAPGKGLEWVAVISYDGSSKYYADSLKGRFTISRDNSKNTLSLQMNSLRAEDTAMYYCVRQSEAYCSDGRCDWRRALDIWGQGTMVTVSP
# VL: DIQMTQSPSSLSASVGDRVTITCQASQDIKNYLNWYQQKPGKAPKLLIYDVSKLETGVPSRFSGSGSGTDFSFTISSLQPEDIATYYCQQYDNLPSYTFGQGTKLEIK
# B12: antibody 365S (antibody, V domains shown)
# VH: EVQLVESGGGLVQPGGSLRLSCAASGLTFSAYEMNWVRQAPGKGLEWVSHITTSGSAIYYADSVKGRFTISRDNAKNSLHLQMNRLRADDTAVYFCARDSTIVQCSGTSCHVSTYSYMDVWGKGTTVTVSS
# VL: EIVLTQSPATLSLSPGERATLSCRASQSVTTYLAWYQHKPGQAPRLLIYDASKRATGIPARFSGSGSGTDFTLTISSLEPEDFAVYHCQQRSSWPPITFGQGTRLEIK
# B13: antibody 382S (antibody, V domains shown)
# VH: QVQLVQSGAEVKKPGSSVKVSCKASGGTFSNYGISWVRQAPGQGLEWMGRNIPIIGIANYAQKFQDRVTITADKSTSTVFMELRSLRYEDTAVYYCARDPLAARRGNWFDPWGQGTLVTVSS
# VL: DIQMTQSPSTLSASVGDRVTITCRASQSVSSWLAWYQQKPGKAPKLLIYDASTLQSGVPSRFSGSGSGTEFTLTISSLQPDDFATYYCQQYNSYSYTFGQGTKLEIK
# B14: antibody 335S (antibody, V domains shown)
# VH: EVQLVESGGGVVQPGRSLRLSCAASGFSFSNYAMHWVRQAPGKGLEWVAVTWYDGSSKYHADSVKGRFTISRDNSKNTLYLQMNSLRAEDTAVYYCARWGMGIVASPGNVLNYYYFMDVWGQGTTVIVSS
# VL: SYELTQPPSVSVSPGQTARITCSGNPLPKKHTYWYQQKPGQAPVLMIYKDSERPSRIPERFSGSSSGTTVTLTISGVQAEDEADYYCQSADSTGIVVFGGGTKLTVL
# B15: antibody 102S (antibody, V domains shown)
# VH: EVQLVESGGGLVQPGGSLRLSCSASGFTFHSYDMNWARQAPGKGLEWVSEISSSGQSKNYADSVRGRFTISRDNAKNSLYLQINSLRSEDTAVYYCARVGFVAKFGSDFSITHGTYYLDYWGQGTLVTVSS
# VL: QLVLTQSPATLSLSPGERATLSCRASQSVSNYLAWYQQKPGQAPRLLIYDASNRAPGVPARFSGSGSGTDFSLTISSLEPEDFAVYYCLQRSNWPPWTFGQGTKVEIK
# Molecular target: T1, mucin domain-deleted Sudan GP (GPdMuc) (Sudan virus (SUDV), UniProt Q7T9D9 33-632)
# T1 construct: also called Sudan GPdMuc; GP(S)dMuc
# Assay: BLI, Fab, pH 5.3
Binder,Kd [nM],koff [s⁻¹],kon [M⁻¹ s⁻¹]
B1,0.46,5.26e-05,112000
B2,0.64,0.000109,172000

# Molecular target: T2, mucin domain-deleted Zaire GP (GPdMuc) (Ebola (Zaire) virus (EBOV), UniProt Q05320 33-632)
# T2 construct: also called Zaire GPdMuc; GP(Z)dMuc
# Assay: ELISA on coated GP
row,Binder,EC50 [µg/mL]
1,B3,0.01
2,B4,2.6
3,B5,0.01
4,B6,0.01
5,B7,1.5
6,B8,0.01

# Molecular target: T1, mucin domain-deleted Sudan GP (GPdMuc)
# Assay: ELISA on coated GP
row,Binder,EC50 [µg/mL]
1,B3,0.02
2,B4,0.31
3,B5,1.74
4,B6,0.2
5,B7,0.12
6,B8,0.34

# Molecular target: T1, mucin domain-deleted Sudan GP (GPdMuc)
# Assay: BLI competition on Sudan GPdMuc (lower table); competitor 316L
row,Binder,% inhibition of binding [%]
1,B9,-6.78
2,B10,7.24
3,B11,7.8
4,B12,5.16
5,B13,10.7
6,B14,1.49
7,B15,10.3

# Molecular target: T2, mucin domain-deleted Zaire GP (GPdMuc)
# Assay: BLI, Fab, pH 7.4
Binder,Kd [nM],koff [s⁻¹],kon [M⁻¹ s⁻¹]
B1,13.3,0.0015,115000
B2,6.64,0.000778,118000

# Molecular target: T1, mucin domain-deleted Sudan GP (GPdMuc)
# Assay: BLI, Fab, pH 7.4
Binder,Kd [nM],koff [s⁻¹],kon [M⁻¹ s⁻¹]
B1,0.372,5.38e-05,145000
B2,0.567,9.54e-05,168000

# Molecular target: T1, mucin domain-deleted Sudan GP (GPdMuc)
# Assay: BLI competition on Sudan GPdMuc (lower table); competitor 15H10
row,Binder,% inhibition of binding [%]
1,B9,7.47
2,B10,11.1
3,B11,7.51
4,B12,9.47
5,B13,17.6
6,B14,8.78
7,B15,11.9

# Molecular target: T1, mucin domain-deleted Sudan GP (GPdMuc)
# Assay: BLI competition on Sudan GPdMuc (lower table); competitor mAb166
row,Binder,% inhibition of binding [%]
1,B9,64.6
2,B10,84.1
3,B11,86.6
4,B12,84.2
5,B13,84.9
6,B14,80
7,B15,78.2

# Molecular target: T1, mucin domain-deleted Sudan GP (GPdMuc)
# Assay: ELISA on coated GP
# Remark: another data set of the same source
row,Binder,EC50 [µg/mL]
1,B9,0.02
2,B10,0.04
3,B11,0.09
4,B12,0.06
5,B13,0.26
6,B14,0.02
7,B15,0.09

# Molecular target: T1, mucin domain-deleted Sudan GP (GPdMuc)
# Assay: BLI competition on Sudan GPdMuc (lower table); competitor 16F6
row,Binder,% inhibition of binding [%]
1,B9,3.29
2,B10,10.1
3,B11,11.1
4,B12,12
5,B13,13.6
6,B14,8.17
7,B15,19.4
